One block for each binder: values may come before it.
Tests used:
Experiment in all cases: cryo-EM structure; intact Bacillus PS3 ATP synthase in GDN, three rotational states at 3.0, 3.0 and 3.2 Å; focused refinement of the membrane-embedded region at 3.3 Å
[1] = biological target: the molecule itself
[2] = biological target: T1, Bacillus PS3 ATP synthase subunit α (Bacillus PS3, UniProt P09219 1-502); details: both partners purified
T1 construct: ATP synthase subunit alpha of Bacillus PS3, expressed from plasmid pTR-ASDS (Suzuki et al., 2002); Three copies stand in the complex (α3β3γδε ab2c10); Residues in the model are in Supplementary file 1; also called αDP; source: E. coli strain DK8, plasmid pTR-ASDS; purified as part of the intact ATP synthase (GDN, HisTrap, Superose 6)

[3] = biological target: T2, Bacillus PS3 ATP synthase subunit γ (Bacillus PS3, UniProt P09222 5-286); details: both partners purified
T2 construct: ATP synthase subunit gamma of Bacillus PS3, expressed from plasmid pTR-ASDS (Suzuki et al., 2002); source: E. coli strain DK8, plasmid pTR-ASDS; purified as part of the intact ATP synthase (GDN, HisTrap, Superose 6)
T2 sequence (P09222 5-286): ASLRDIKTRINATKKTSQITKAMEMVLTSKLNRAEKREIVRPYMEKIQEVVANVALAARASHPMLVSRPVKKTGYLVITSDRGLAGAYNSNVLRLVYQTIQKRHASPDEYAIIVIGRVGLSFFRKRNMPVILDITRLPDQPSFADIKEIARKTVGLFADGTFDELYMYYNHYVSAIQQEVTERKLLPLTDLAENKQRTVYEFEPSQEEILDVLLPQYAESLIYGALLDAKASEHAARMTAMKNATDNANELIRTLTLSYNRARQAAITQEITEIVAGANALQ

T1 sequence (P09219 whole entry): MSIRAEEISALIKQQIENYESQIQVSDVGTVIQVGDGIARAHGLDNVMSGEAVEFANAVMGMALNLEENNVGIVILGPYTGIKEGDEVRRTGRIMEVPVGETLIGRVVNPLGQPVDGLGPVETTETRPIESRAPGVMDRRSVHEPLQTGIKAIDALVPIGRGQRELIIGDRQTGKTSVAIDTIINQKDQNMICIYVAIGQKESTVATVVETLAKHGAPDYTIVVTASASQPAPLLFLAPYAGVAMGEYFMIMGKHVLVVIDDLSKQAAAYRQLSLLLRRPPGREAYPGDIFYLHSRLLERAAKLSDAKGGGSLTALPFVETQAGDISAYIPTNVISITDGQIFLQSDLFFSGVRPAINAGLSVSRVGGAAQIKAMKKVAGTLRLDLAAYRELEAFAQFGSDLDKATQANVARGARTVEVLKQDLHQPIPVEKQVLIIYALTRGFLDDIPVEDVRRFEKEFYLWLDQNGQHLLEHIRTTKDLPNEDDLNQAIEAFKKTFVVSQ

B1: Bacillus PS3 ATP synthase subunit c (natural protein)
chain: MSLGVLAAAIAVGLGALGAGIGNGLIVSRTIEGIARQPELRPVLQTTMFIGVALVEALPIIGVVFSFIYLGR
notes: ATP synthase subunit c of Bacillus PS3, expressed from plasmid pTR-ASDS (Suzuki et al., 2002); Forms the ring of 10 c-subunits in the FO region; also called c-ring; c10-ring; source: E. coli strain DK8, plasmid pTR-ASDS; purified as part of the intact ATP synthase (GDN, HisTrap, Superose 6); copies: 10
- stoichiometry N [1]: 10

- binding result [2]: binds
- binding result [3]: binds
B2: Bacillus PS3 ATP synthase subunit ε (natural protein, UniProt P07678 1-132, looked up)
chain: MKTIHVSVVTPDGPVYEDDVEMVSVKAKSGELGILPGHIPLVAPLEISAARLKKGGKTQYIAVSGGFLEVRPDNVTILAQAAERAEDIDVLRAKARKSGRTPLQSQQDDIDFKRAELALKRAMNRLSVAEMK
notes: ATP synthase subunit epsilon of Bacillus PS3, expressed from plasmid pTR-ASDS (Suzuki et al., 2002); source: E. coli strain DK8, plasmid pTR-ASDS; purified as part of the intact ATP synthase (GDN, HisTrap, Superose 6)
